Measurements taken from article PMC11251093 (iScience, 2024).

Target: SARS-CoV S-6P (SARS-CoV, strain , UniProt P59594, stabilised)
Assay: SPR

B1: 6D6 (antibody, V domains shown)
VH: EVQLQQSGAELVKPGASVKLSCTTSGFNIIDTYMHWVKQRPEEGLEWIGGIDPVNGNSEYDPKFQDKATITADTSSNTAYLHLSRLTSEDTAVYYCASAHYYGSSSSFPYWGQGTDLVTVS
VL: DIVMTQSQKFMSTSVGDRVSVTCKASQNVGTHVAWYQQKPGQSPKALIYSASYRYSGVPDRFTGSGVGTDFTLTITNVQSEDLAEYFCQQYNSYFTFGSGTKLEIK
binding result: binds
